Experiments:
[1] = target: T1, human a-PD-L1 Fc (Sino Biological, 10084-H02H, LC11NO2402) (human, UniProt Q9NZQ7 19-239); assay: SPR, PD-L1 Fc immobilised, scFv analyte, 1:1 fit
T1 construct: Bought Fc fusion immobilised on the SPR chip; Printed as 'a-PD-L1 Fc' but used as the antigen (ligand) for the anti-PD-L1 scFvs; also called Human PD-L1; not shown: Fc part
Procedure: (§1) The mutation variants were then injected at concentrations of 10 nM, 2 nM and 0.4 nM over the ligand-immobilized and reference spots. The wild type variants were used as a control, while an empty spot was used as reference.
(§2) After each cycle with analyte, the surface was regenerated with a 3M MgCl₂ solution, thereby allowing the next analyte cycle to have only free ligand available. Binding affinity KD was globally calculated by the Bruker SPR software based on the binding association (kₒₙ) and dissociation (Koff) rate, by fitting a 1:1 Langmuir model to the curves obtained by the cycles with the three different concentrations of the analyte.

[2] = target: pre-existing anti-drug antibodies (ADA) present in human sera; assay: pre-existing ADA ELISA, scFv coated, human sera unspiked vs spiked
[3] = target: T2, human a-Mesothelin (Acro Biosystems; MSN_H5223) (human, UniProt Q13421 296-580, limits assumed); assay: SPR, mesothelin immobilised, scFv analyte, 1:1 fit
T2 construct: Bought protein immobilised on the SPR chip; Printed as 'a-Mesothelin' but used as the antigen for the anti-MSLN scFvs; also called Human MSLN; MSLN
Procedure: as §1, §2

T2 sequence (Q13421 other isoform, or with tags, fused parts or gaps limits assumed): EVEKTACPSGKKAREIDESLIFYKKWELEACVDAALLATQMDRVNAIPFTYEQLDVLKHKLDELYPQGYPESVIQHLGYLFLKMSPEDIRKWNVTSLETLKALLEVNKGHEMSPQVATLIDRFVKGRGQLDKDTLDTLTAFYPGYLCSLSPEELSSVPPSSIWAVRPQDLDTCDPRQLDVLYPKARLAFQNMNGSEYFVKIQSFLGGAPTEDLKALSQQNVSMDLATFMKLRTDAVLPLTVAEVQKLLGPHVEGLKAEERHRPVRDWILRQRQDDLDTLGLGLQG
T1 sequence (Q9NZQ7 19-239 limits assumed): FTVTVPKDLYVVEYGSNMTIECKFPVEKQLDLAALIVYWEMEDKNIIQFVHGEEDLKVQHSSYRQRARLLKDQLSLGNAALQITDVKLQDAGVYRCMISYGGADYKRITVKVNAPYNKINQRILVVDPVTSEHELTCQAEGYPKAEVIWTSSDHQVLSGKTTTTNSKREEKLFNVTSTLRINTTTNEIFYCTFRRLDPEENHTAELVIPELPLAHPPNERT

B1: PRO3313 (scFv 37-20-B03-sc09.1_(T101S, T146R)) (scFv)
scFv: DIQMTQSPASLSASVGDRVTITCQASQSIGTYLAWYQQKPGKPPKLLIYRAFILASGVPSRFSGSGSGTDFTLTISSLQPEDFATYYCQSNFYSDSTTIGPNAFGTGTKVTVLGGGGGSGGGGSGGGGSGGGGSEVQLVESGGGLVQPGGSLRLSCAASGFSFNSDYWIYWVRQAPGKGLEWIASIYGGSSGNTQYASWAQGRFTISRDNSKNTVYLQMNSLRAEDSAVYFCARGYVDYGGATDLWGQGTLVRVSS
notes: PRO2230 variant; VH substitutions, AHo numbering; also called PRO2230 T101S-T146R
- Kd [1]: 0.014 nM
- n-fold to wt [1]: 0.3 fold
- Mean No of serum samples >30% inhibition (30% CCP) with SCP (serum samples) [2]: 1
- No of serum samples >30% inhibition (30% CCP) without SCP (serum samples) [2]: 5

B2: PRO3314 (scFv 37-20-B03-sc09.1_(T101Q, T146Q)) (scFv)
scFv: DIQMTQSPASLSASVGDRVTITCQASQSIGTYLAWYQQKPGKPPKLLIYRAFILASGVPSRFSGSGSGTDFTLTISSLQPEDFATYYCQSNFYSDSTTIGPNAFGTGTKVTVLGGGGGSGGGGSGGGGSGGGGSEVQLVESGGGLVQPGGSLRLSCAASGFSFNSDYWIYWVRQAPGKGLEWIASIYGGSSGNTQYASWAQGRFTISRDNSKNTVYLQMNSLRAEDQAVYFCARGYVDYGGATDLWGQGTLVQVSS
notes: PRO2230 variant; VH substitutions, AHo numbering; also called PRO2230 T101Q-T146Q
- Kd [1]: 0.027 nM
- n-fold to wt [1]: 0.6 fold
- Mean No of serum samples >30% inhibition (30% CCP) with SCP (serum samples) [2]: 1
- No of serum samples >30% inhibition (30% CCP) without SCP (serum samples) [2]: 4

B3: PRO3339 (scFv 37-20-B03-sc09.1_(T101N, T146Q)) (scFv)
scFv: DIQMTQSPASLSASVGDRVTITCQASQSIGTYLAWYQQKPGKPPKLLIYRAFILASGVPSRFSGSGSGTDFTLTISSLQPEDFATYYCQSNFYSDSTTIGPNAFGTGTKVTVLGGGGGSGGGGSGGGGSGGGGSEVQLVESGGGLVQPGGSLRLSCAASGFSFNSDYWIYWVRQAPGKGLEWIASIYGGSSGNTQYASWAQGRFTISRDNSKNTVYLQMNSLRAEDNAVYFCARGYVDYGGATDLWGQGTLVQVSS
notes: PRO2230 variant; VH substitutions, AHo numbering; also called PRO2230 T101N-T146Q
- Kd [1]: 0.035 nM
- n-fold to wt [1]: 0.7 fold
- Mean No of serum samples >30% inhibition (30% CCP) with SCP (serum samples) [2]: 0
- No of serum samples >30% inhibition (30% CCP) without SCP (serum samples) [2]: 0

B4: PRO3341 (scFv 37-20-B03-sc09.1_(T101S, T146S)) (scFv)
scFv: DIQMTQSPASLSASVGDRVTITCQASQSIGTYLAWYQQKPGKPPKLLIYRAFILASGVPSRFSGSGSGTDFTLTISSLQPEDFATYYCQSNFYSDSTTIGPNAFGTGTKVTVLGGGGGSGGGGSGGGGSGGGGSEVQLVESGGGLVQPGGSLRLSCAASGFSFNSDYWIYWVRQAPGKGLEWIASIYGGSSGNTQYASWAQGRFTISRDNSKNTVYLQMNSLRAEDSAVYFCARGYVDYGGATDLWGQGTLVSVSS
notes: PRO2230 variant; VH substitutions, AHo numbering; also called PRO2230 T101S-T146S
- Kd [1]: 0.051 nM
- n-fold to wt [1]: 1 fold
- Mean No of serum samples >30% inhibition (30% CCP) with SCP (serum samples) [2]: 0
- No of serum samples >30% inhibition (30% CCP) without SCP (serum samples) [2]: 4

B5: PRO3342 (scFv 37-20-B03-sc09.1_(T101K, T146D)) (scFv)
scFv: DIQMTQSPASLSASVGDRVTITCQASQSIGTYLAWYQQKPGKPPKLLIYRAFILASGVPSRFSGSGSGTDFTLTISSLQPEDFATYYCQSNFYSDSTTIGPNAFGTGTKVTVLGGGGGSGGGGSGGGGSGGGGSEVQLVESGGGLVQPGGSLRLSCAASGFSFNSDYWIYWVRQAPGKGLEWIASIYGGSSGNTQYASWAQGRFTISRDNSKNTVYLQMNSLRAEDKAVYFCARGYVDYGGATDLWGQGTLVDVSS
notes: PRO2230 variant; VH substitutions, AHo numbering; also called PRO2230 T101K-T146D
- Kd [1]: 0.038 nM
- n-fold to wt [1]: 0.8 fold
- Mean No of serum samples >30% inhibition (30% CCP) with SCP (serum samples) [2]: 0
- No of serum samples >30% inhibition (30% CCP) without SCP (serum samples) [2]: 1

B6: PRO3338 (scFv 37-20-B03-sc09.1_(T101K, T146Q)) (scFv)
scFv: DIQMTQSPASLSASVGDRVTITCQASQSIGTYLAWYQQKPGKPPKLLIYRAFILASGVPSRFSGSGSGTDFTLTISSLQPEDFATYYCQSNFYSDSTTIGPNAFGTGTKVTVLGGGGGSGGGGSGGGGSGGGGSEVQLVESGGGLVQPGGSLRLSCAASGFSFNSDYWIYWVRQAPGKGLEWIASIYGGSSGNTQYASWAQGRFTISRDNSKNTVYLQMNSLRAEDKAVYFCARGYVDYGGATDLWGQGTLVQVSS
notes: PRO2230 variant; VH substitutions, AHo numbering; also called PRO2230 T101K-T146Q
- Kd [1]: 0.021 nM
- n-fold to wt [1]: 0.4 fold
- Mean No of serum samples >30% inhibition (30% CCP) with SCP (serum samples) [2]: 0
- No of serum samples >30% inhibition (30% CCP) without SCP (serum samples) [2]: 0

B7: PRO3340 (scFv 37-20-B03-sc09.1_(T101S, T146K)) (scFv)
scFv: DIQMTQSPASLSASVGDRVTITCQASQSIGTYLAWYQQKPGKPPKLLIYRAFILASGVPSRFSGSGSGTDFTLTISSLQPEDFATYYCQSNFYSDSTTIGPNAFGTGTKVTVLGGGGGSGGGGSGGGGSGGGGSEVQLVESGGGLVQPGGSLRLSCAASGFSFNSDYWIYWVRQAPGKGLEWIASIYGGSSGNTQYASWAQGRFTISRDNSKNTVYLQMNSLRAEDSAVYFCARGYVDYGGATDLWGQGTLVKVSS
notes: PRO2230 variant; VH substitutions, AHo numbering; also called PRO2230 T101S-T146K
- Kd [1]: 0.056 nM
- n-fold to wt [1]: 1.1 fold
- Mean No of serum samples >30% inhibition (30% CCP) with SCP (serum samples) [2]: 0
- No of serum samples >30% inhibition (30% CCP) without SCP (serum samples) [2]: 2

B8: PRO3317 (scFv 37-20-B03-sc09.1_(T101Q)) (scFv)
scFv: DIQMTQSPASLSASVGDRVTITCQASQSIGTYLAWYQQKPGKPPKLLIYRAFILASGVPSRFSGSGSGTDFTLTISSLQPEDFATYYCQSNFYSDSTTIGPNAFGTGTKVTVLGGGGGSGGGGSGGGGSGGGGSEVQLVESGGGLVQPGGSLRLSCAASGFSFNSDYWIYWVRQAPGKGLEWIASIYGGSSGNTQYASWAQGRFTISRDNSKNTVYLQMNSLRAEDQAVYFCARGYVDYGGATDLWGQGTLVTVSS
notes: PRO2230 variant; VH substitution, AHo numbering; also called PRO2230 T101Q
- Kd [1]: 0.042 nM
- n-fold to wt [1]: 0.9 fold
- Mean No of serum samples >30% inhibition (30% CCP) with SCP (serum samples) [2]: 1
- No of serum samples >30% inhibition (30% CCP) without SCP (serum samples) [2]: 7

B9: PRO3343 (scFv 37-20-B03-sc09.1_(T101R, T146E)) (scFv)
scFv: DIQMTQSPASLSASVGDRVTITCQASQSIGTYLAWYQQKPGKPPKLLIYRAFILASGVPSRFSGSGSGTDFTLTISSLQPEDFATYYCQSNFYSDSTTIGPNAFGTGTKVTVLGGGGGSGGGGSGGGGSGGGGSEVQLVESGGGLVQPGGSLRLSCAASGFSFNSDYWIYWVRQAPGKGLEWIASIYGGSSGNTQYASWAQGRFTISRDNSKNTVYLQMNSLRAEDRAVYFCARGYVDYGGATDLWGQGTLVEVSS
notes: PRO2230 variant; VH substitutions, AHo numbering; also called PRO2230 T101R-T146E
- Kd [1]: 0.029 nM
- n-fold to wt [1]: 0.6 fold
- Mean No of serum samples >30% inhibition (30% CCP) with SCP (serum samples) [2]: 0
- No of serum samples >30% inhibition (30% CCP) without SCP (serum samples) [2]: 0

B10: PRO1922 (scFv 54-21-H03-sc01) (scFv)
scFv: DIQMTQSPSSLSASVGDRVTITCQASESIYSSLAWYQQKPGKAPKLLIYLASTLASGVPSRFSGSGSGTDFTLTISSLQPEDFATYYCQSTDYTTSTHRNSFGTGTKVTVLGGGGGSGGGGSGGGGSGGGGSEVQLVESGGGLVQPGGSLRLSCAASGFSFSTTYYMCWVRQAPGKGLEWIGCTNTASSVRTYYATWAKGRFTISRDNSKNTVYLQMNSLRAEDTAVYYCARDMGFADYALNLWGQGTLVTVSS
notes: also called PRO1922 wt; a-MSLN wt
- Mean No of serum samples >30% inhibition (30% CCP) with SCP (serum samples) [2]: 8
- No of serum samples >30% inhibition (30% CCP) without SCP (serum samples) [2]: 16
- Kd [3]: 1.8 nM
- n-fold to wt [3]: 1 fold

B11: PRO2918 (scFv 54-21-H03-sc01_(L12R, V103T, L144Q)) (scFv)
scFv: DIQMTQSPSSLSASVGDRVTITCQASESIYSSLAWYQQKPGKAPKLLIYLASTLASGVPSRFSGSGSGTDFTLTISSLQPEDFATYYCQSTDYTTSTHRNSFGTGTKVTVLGGGGGSGGGGSGGGGSGGGGSEVQLVESGGGRVQPGGSLRLSCAASGFSFSTTYYMCWVRQAPGKGLEWIGCTNTASSVRTYYATWAKGRFTISRDNSKNTVYLQMNSLRAEDTATYYCARDMGFADYALNLWGQGTQVTVSS
notes: VH substitutions, AHo numbering; also called PRO1922-L12R-V103T-L144Q
- Mean No of serum samples >30% inhibition (30% CCP) with SCP (serum samples) [2]: 3
- No of serum samples >30% inhibition (30% CCP) without SCP (serum samples) [2]: 5
- Kd [3]: 2.4 nM
- n-fold to wt [3]: 1.3 fold

B12: PRO2931 (scFv 54-21-H03-sc01_(L144K, S148L)) (scFv)
scFv: DIQMTQSPSSLSASVGDRVTITCQASESIYSSLAWYQQKPGKAPKLLIYLASTLASGVPSRFSGSGSGTDFTLTISSLQPEDFATYYCQSTDYTTSTHRNSFGTGTKVTVLGGGGGSGGGGSGGGGSGGGGSEVQLVESGGGLVQPGGSLRLSCAASGFSFSTTYYMCWVRQAPGKGLEWIGCTNTASSVRTYYATWAKGRFTISRDNSKNTVYLQMNSLRAEDTAVYYCARDMGFADYALNLWGQGTKVTVLS
notes: PRO1922 variant; VH substitutions, AHo numbering; also called PRO1922 L144K-S148L
- Mean No of serum samples >30% inhibition (30% CCP) with SCP (serum samples) [2]: 1
- No of serum samples >30% inhibition (30% CCP) without SCP (serum samples) [2]: 6
- Kd [3]: 1.4 nM
- n-fold to wt [3]: 0.8 fold

B13: PRO2930 (scFv 54-21-H03-sc01_(L144K, T146E, S148K)) (scFv)
scFv: DIQMTQSPSSLSASVGDRVTITCQASESIYSSLAWYQQKPGKAPKLLIYLASTLASGVPSRFSGSGSGTDFTLTISSLQPEDFATYYCQSTDYTTSTHRNSFGTGTKVTVLGGGGGSGGGGSGGGGSGGGGSEVQLVESGGGLVQPGGSLRLSCAASGFSFSTTYYMCWVRQAPGKGLEWIGCTNTASSVRTYYATWAKGRFTISRDNSKNTVYLQMNSLRAEDTAVYYCARDMGFADYALNLWGQGTKVEVKS
notes: PRO1922 variant; VH substitutions, AHo numbering; also called PRO1922 L144K-T146E-S148K
- Mean No of serum samples >30% inhibition (30% CCP) with SCP (serum samples) [2]: 0
- No of serum samples >30% inhibition (30% CCP) without SCP (serum samples) [2]: 0
- Kd [3]: 1.3 nM
- n-fold to wt [3]: 0.7 fold
